Laboratory results: patent publication US20110065647A1 (BIOSEARCH 2007, published 2011)
Ends that are not written are not given here.

Columns and labels:
rNaV1.3 channels = rNaV1.3 channels (rat, UniProt P08104 1-1951); experiment: cell-based or functional assay
rNaV1.8 channels = rNaV1.8 channels (rat, UniProt Q62968 1-1956); experiment: cell-based or functional assay
Chain of rNaV1.8 channels (Q62968 whole entry): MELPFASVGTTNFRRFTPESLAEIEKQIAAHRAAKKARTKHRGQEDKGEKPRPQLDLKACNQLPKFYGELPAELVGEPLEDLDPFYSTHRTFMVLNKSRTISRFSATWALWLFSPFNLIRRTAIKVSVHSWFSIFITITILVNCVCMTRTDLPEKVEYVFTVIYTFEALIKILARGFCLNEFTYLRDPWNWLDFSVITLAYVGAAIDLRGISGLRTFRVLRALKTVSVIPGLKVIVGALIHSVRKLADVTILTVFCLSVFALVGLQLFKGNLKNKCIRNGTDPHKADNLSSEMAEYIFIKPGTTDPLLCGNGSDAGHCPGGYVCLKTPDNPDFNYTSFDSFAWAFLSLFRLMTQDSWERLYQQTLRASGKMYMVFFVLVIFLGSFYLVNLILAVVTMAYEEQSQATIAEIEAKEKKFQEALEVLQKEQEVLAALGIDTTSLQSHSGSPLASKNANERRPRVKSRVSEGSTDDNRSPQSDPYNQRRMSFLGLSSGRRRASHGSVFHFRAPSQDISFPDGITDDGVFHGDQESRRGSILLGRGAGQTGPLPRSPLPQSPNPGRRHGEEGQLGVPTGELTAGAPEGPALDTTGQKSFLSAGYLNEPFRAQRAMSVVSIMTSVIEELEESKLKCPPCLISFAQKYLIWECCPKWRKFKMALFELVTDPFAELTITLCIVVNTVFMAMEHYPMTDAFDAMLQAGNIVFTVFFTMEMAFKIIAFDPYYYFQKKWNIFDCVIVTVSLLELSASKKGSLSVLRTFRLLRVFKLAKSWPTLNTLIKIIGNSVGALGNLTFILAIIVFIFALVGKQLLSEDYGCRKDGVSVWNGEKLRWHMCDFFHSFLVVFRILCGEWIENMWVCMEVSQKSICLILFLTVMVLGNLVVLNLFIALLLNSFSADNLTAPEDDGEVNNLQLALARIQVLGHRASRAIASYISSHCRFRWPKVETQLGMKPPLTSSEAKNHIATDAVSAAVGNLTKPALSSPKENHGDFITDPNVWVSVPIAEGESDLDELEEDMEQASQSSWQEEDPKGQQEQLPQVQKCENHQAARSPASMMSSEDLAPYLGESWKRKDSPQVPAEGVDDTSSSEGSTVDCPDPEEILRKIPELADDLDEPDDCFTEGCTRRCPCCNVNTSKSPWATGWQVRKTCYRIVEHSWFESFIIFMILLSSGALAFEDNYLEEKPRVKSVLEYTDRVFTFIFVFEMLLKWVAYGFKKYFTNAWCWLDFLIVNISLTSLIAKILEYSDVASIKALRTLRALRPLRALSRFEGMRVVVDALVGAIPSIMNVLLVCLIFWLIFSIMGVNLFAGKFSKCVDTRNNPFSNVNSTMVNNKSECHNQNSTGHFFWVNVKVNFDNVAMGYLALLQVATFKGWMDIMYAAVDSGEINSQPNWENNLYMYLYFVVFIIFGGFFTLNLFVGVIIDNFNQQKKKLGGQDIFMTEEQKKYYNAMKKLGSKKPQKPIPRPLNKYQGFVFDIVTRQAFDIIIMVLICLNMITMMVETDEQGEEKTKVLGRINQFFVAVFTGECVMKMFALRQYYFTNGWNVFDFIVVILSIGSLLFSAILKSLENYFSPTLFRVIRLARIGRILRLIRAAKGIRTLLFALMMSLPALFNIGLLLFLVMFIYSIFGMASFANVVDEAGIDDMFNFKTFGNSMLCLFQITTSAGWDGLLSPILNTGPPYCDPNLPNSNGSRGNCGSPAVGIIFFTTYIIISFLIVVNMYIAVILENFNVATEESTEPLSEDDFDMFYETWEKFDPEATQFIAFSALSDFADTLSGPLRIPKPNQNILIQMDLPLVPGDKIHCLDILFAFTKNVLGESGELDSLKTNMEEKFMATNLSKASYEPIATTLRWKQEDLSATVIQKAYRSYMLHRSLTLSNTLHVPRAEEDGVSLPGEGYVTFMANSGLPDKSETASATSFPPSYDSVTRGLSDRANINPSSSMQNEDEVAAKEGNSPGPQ

Chain of rNaV1.3 channels (P08104 whole entry): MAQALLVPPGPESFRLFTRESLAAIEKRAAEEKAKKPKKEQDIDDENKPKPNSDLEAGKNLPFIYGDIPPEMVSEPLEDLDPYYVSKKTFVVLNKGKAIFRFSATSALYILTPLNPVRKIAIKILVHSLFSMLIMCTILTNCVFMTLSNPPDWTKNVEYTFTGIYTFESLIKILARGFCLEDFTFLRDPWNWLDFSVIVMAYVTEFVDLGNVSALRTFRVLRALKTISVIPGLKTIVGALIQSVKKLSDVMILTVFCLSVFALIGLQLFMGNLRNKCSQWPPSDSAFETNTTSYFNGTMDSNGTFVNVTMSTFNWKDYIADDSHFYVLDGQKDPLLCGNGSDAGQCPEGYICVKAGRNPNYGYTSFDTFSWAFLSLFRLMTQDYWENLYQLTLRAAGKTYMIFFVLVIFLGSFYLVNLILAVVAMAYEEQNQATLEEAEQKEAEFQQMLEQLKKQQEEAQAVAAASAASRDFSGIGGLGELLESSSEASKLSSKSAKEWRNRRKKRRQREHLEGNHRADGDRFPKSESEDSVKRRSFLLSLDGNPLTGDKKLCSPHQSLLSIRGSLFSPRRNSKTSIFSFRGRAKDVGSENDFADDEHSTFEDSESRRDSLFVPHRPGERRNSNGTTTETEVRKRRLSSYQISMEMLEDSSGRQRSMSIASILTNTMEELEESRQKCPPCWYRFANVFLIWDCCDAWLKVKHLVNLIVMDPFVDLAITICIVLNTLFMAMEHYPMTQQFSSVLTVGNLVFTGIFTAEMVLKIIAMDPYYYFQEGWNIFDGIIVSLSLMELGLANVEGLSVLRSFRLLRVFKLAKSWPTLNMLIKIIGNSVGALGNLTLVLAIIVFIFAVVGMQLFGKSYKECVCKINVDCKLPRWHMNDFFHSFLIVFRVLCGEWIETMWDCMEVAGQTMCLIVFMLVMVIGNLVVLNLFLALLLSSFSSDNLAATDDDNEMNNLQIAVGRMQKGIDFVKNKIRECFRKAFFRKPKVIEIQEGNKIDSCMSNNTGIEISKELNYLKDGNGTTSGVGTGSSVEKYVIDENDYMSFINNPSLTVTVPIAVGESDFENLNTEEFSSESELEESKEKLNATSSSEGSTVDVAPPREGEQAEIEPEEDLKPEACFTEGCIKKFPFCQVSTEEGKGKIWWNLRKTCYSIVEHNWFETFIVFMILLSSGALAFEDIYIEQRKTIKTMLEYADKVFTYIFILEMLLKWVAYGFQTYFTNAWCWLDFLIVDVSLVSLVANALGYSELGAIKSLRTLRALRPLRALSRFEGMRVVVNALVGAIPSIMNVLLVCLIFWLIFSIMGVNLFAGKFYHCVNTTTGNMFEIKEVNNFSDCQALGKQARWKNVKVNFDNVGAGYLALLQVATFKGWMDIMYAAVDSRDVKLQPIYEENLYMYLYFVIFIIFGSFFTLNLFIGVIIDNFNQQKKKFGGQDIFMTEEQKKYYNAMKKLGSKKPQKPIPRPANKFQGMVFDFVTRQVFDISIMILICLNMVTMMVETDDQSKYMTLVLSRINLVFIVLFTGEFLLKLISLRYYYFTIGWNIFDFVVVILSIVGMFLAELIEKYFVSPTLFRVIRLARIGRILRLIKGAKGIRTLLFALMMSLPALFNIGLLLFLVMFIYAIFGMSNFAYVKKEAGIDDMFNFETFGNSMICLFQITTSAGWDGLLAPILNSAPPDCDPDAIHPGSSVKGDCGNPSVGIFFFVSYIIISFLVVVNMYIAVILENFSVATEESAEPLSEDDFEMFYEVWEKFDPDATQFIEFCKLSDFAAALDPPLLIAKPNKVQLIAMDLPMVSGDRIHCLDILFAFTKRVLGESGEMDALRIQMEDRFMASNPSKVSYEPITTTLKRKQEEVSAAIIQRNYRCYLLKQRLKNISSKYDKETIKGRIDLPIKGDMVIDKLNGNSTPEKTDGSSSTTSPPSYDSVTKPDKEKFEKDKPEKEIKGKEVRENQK

Binder	IC50 Nav1.3 (µM); inhibition of channel current, patch clamp (rNaV1.3 channels)	IC50 Nav1.8 (µM); inhibition of channel current, patch clamp (rNaV1.8 channels)
ACLGFGEKCNPSNDKCCKSSSLVCSQKHKWCKYGW (disulfide (positions not given here); not fully specified (bridges); also: three disulphide bridges, probably C1-C4, C2-C5, C3-C6) [Peptide C]	1.2 µM	
YCQEFLWTCDEERKCCGDMVCRLWCKKRL-NH2 (disulfide (positions not given here); not fully specified (bridges); also: three disulphide bridges, probably C1-C4, C2-C5, C3-C6) [Peptide B]	0.23 µM	
DDCLGMFSSCDPDNDKCCEGRKCNRKDKWCKYVL-NH2 (disulfide (positions not given here); not fully specified (bridges); also: three disulphide bridges, probably C1-C4, C2-C5, C3-C6) [Peptide A]	1.75 µM	2.5 µM
DCLGWFKGCDPDNDKCCEGYKCNRRDKWCKYKLW (disulfide (positions not given here); not fully specified (bridges); also: three disulphide bridges, probably C1-C4, C2-C5, C3-C6) [Peptide F]	0.13 µM	0.17 µM
